Results as given in PMC7515630, “Optogenetic activation of heterotrimeric G-proteins by LOV2GIVe, a rationally engineered modular protein” (eLife, 2020).

Molecular target: T1, GST-LOV2GIV (L) (Avena sativa | , FMN chromophore. GST omitted. The exact sequence and junction are in Supplementary file 1, so limits are by convention: AsLOV2 404-546 and the UniProt GBA motif. The paper's GIV numbering is the displ)
T1 chain: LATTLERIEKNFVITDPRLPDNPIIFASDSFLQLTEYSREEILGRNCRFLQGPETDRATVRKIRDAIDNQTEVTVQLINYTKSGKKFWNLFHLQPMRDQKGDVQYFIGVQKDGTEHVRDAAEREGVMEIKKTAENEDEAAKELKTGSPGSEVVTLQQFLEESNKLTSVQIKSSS
Assay: pull-down; ~20 µg purified GST-fused construct on glutathione-agarose beads, 3 µg (~300 nM) purified His-tagged Gα; 4 hr at 4°C in 50 mM Tris-HCl pH 7.4, 100 mM NaCl, 0.4% NP-40, 10 mM MgCl2, 5 mM EDTA, 1 mM DTT, 30 µM GDP; immunoblot for His
Conditions: both partners purified

- fold binding over the dark conformation, LOV2GIV (D): ~3 fold
B1: His-Gαi3 (rat) (natural protein, UniProt P08753 1-354, looked up)
chain: MGCTLSAEDKAAVERSKMIDRNLREDGEKAAKEVKLLLLGAGESGKSTIVKQMKIIHEDGYSEDECKQYKVVVYSNTIQSIIAIIRAMGRLKIDFGEAARADDARQLFVLAGSAEEGVMTSELAGVIKRLWRDGGVQACFSRSREYQLNDSASYYLNDLDRISQTNYIPTQQDVLRTRVKTTGIVETHFTFKELYFKMFDVGGQRSERKKWIHCFEGVTAIIFCVALSDYDLVLAEDEEMNRMHESMKLFDSICNNKWFTDTSIILFLNKKDLFEEKIKRSPLTICYPEYTGSNTYEEAAAYIQCQFEDLNRRKDTKEVYTHFTCATDTKNVQFVFDAVTDVIIKNNLKECGLY
notes: rat Gαi3, G-protein alpha subunit i3; kept with GDP in the buffers; also called pET28b-Gαi3; source: E. coli BL21(DE3), purified (HisPur cobalt resin, desalting)
